The source of these data is patent EP4682164A1 (Curogen Technology Co., Ltd., dated 2026).

Assay [1] deals with T1, human IL-17A (IL-17AA homodimer) (human, UniProt Q16552 20-155, limits assumed). Put plainly: cell-based or functional assay.
The target in assay [2] is T2, human TNFα (human, UniProt P01375 77-233). The assay is described as follows: cell-based or functional assay.
Assay [3] concerns the target T3, human IL-17F (IL-17FF homodimer) (human, UniProt Q96PD4 31-163).
T3 sequence (looked up): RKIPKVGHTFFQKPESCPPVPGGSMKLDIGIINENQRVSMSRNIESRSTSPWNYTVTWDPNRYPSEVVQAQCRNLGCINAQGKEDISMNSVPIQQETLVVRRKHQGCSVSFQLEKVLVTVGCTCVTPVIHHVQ
Put plainly: cell-based or functional assay.

Assay [4] addresses T1, human IL-17A (IL-17AA homodimer). The assay is described as follows: ELISA, cytokine coated on plate, binder titrated, HRP secondary antibody.
The target in assay [5] is T2, human TNFα. The assay is described as above.
Assay [6] has as its target T3, human IL-17F (IL-17FF homodimer). The description is as above.

T1 sequence (Q16552 20-155 limits assumed): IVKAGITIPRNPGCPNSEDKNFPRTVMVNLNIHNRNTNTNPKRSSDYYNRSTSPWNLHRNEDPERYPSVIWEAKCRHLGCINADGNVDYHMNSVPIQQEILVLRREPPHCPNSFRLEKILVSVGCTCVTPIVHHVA
T2 sequence (P01375 77-233 limits assumed): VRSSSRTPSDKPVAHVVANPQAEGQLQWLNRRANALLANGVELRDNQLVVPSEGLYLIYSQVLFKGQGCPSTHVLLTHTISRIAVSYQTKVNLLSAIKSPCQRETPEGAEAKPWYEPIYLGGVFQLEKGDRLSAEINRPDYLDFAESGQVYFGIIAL

B1: T1-T4-06 (Fc fusion)
chain: LRLLDHRAPVCSQPGLNCTVKNSDCLDDSWIHPRNLTPSSPKDLQIQLHFAHTQQGDLVPVAHIEWTLQTDASILYLEGAELSVLQLDTNERLCVRFEFLSKLRHHHRRWRFTFSHFVVDPGQEYEVTVHHLPKPIPDGDPNHQSKNFLVPDCEHARMKVTTPCMSSALPWLNVSADGDNVHLVLNVSEEQHFGLSLYWNQVQGPPKPRWHKNLTGPQIITLNHTDLVPCLCIQVWPLEPDSVRTNICPFREDPRAHQNLWQAARLRLLTLQSWLLDAPCSLPAEAALCWRAPGGDPCQPLVPPLSWENVTVDKVLEFPLLKGHPNLCVQVNSSEKLQLQECLWADSLGPLKDDVLLLETRGPQDNRSLCALEPSGCTSLPSKASTRAARLGEYLLQDLQSGQCLQLWDDDLGALWACPMDKYIHKTGIEGRMDRNTGRGGEEKKKEKEKEEQEERETKTPECPSHTQPLGVFLFPPKPKDTLMISRTPEVTCVVVDVSQEDPEVQFNWYVDGVEVHNAKTKPREEQFNSTYRVVSVLTVLHQDWLNGKEYKCKVSNKGLPSSIEKTISKAKGQPREPQVYTLPPSQEEMTKNQVSLTCLVKGFYPSDIAVEWESNGQPENNYKTTPPVLDSDGSFFLYSRLTVDKSRWQEGNVFSCSVMHEALHNHYTQKSLSLSLGKGGGGSGGGGSGGGGSLELPAQVAFTPYAPEPGSTCRLREYYDQTAQMCCSKCSPGQHAKVFCTKTSDTVCDSCEDSTYTQLWNWVPECLSCGSRCSSDQVETQACTREQNRICTCRPGWYCALSKQEGCRLCAPLRKCRPGFGVARPGTETSDVVCKPCAPGTFSNTTSSTDICRPHQICNVVAIPGNASMDAVCTSTSPTRSMAPGAVHLPQPVSTRSQHTQPTPEPSTAPSTSFLLPMGPSPPAEGSTGD
notes: also called T1b-Fc-T4wt; IL-17RA/RC-Fc-TNFR2
Usually EC50 stands for the concentration at which the effect is half-maximal. With B1, in assay [1], the “IC50 (ng/mL) of hIL-17A, SEAP reporter assay in HEK-Blue IL-17 cells” value worked out at 24.7 ng/mL. Further, in assay [2], the “IC50 (ng/mL) of hTNFα, SEAP reporter assay in HEK-Blue TNFα cells” value was determined as 249 ng/mL. Further, the “IC50 (ng/mL) of hIL-17F, SEAP reporter assay in HEK-Blue IL-17 cells” value in assay [3] was 2230 ng/mL. For the same molecule, the results for the EC50 in assay [4] and in assay [5] were 0.0103 µg/mL and 0.0233 µg/mL, respectively.

B2: T1-T4-31 (Fc fusion)
chain: LRLLDHRAPVCSQPGLNCTVKNSDCLDDSWIHPRNLTPSSPKDLQIQLHFAHTQQGDLVPVAHIEWTLQTDASILYLEGAELSVLQLDTNERLCVRFEFLSKLRHHHRRWRFTFSHFVVDPGQEYEVTVHHLPKPIPDGDPNHQSKNFLVPDCEHPRMKVTTPCMSSALPWLNVSADGDNVHLVLNVSEEQHFGLSLYWNQVQGPPKPRWHKNLTGPQIITLNHTDLVPCLCIQVWPLEPDSVRTNICPFREDPRAHQNLWQAARLRLLTLQSWLLDAPCSLPAEAALCWRAPGGDPCQPLVPPLSWENVTVDKVLEFPLLKGHPNLCVQVNSSEKLQLQECLWADSLGPLKDDVLLLETRGPQDNRSLCALEPSGCTSLPSKASTRAARLGEYLLQDLQSGQCLQLWDDDLGALWACPMDKYIHKTGIEGRMDRNTGRGGEEKKKEKEKEEQEERETKTPECPSHTQPLGVFLFPPKPKDTLYITREPEVTCVVVDVSQEDPEVQFNWYVDGVEVHNAKTKPREEQFNSTYRVVSVLTVLHQDWLNGKEYKCKVSNKGLPSSIEKTISKAKGQPREPQVYTLPPSQEEMTKNQVSLTCLVKGFYPSDIAVEWESNGQPENNYKTTPPVLDSDGSFFLYSRLTVDKSRWQEGNVFSCSVMHEALHNHYTQKSLSLSLGKGGGGSGGGGSGGGGSLELPAQVAFTPYAPEPGSTCRLREYYDQTAQMCCAKCPPGQHAKVFCTKTSDTVCDSCEDSTYTQLWNWVPECLSCSSRCSSDQVETQACTREQNRICTCRPGWYCALSKQEGCRLCAPLSKCRPGFGVARPGTETSDVVCKPCAPGTFSNTTSSTDICRPHQICSVVAIPGNASMDAVCTSTSPTRSMAPGAVHLPQPVSTRSQHTQPTPGPSTAPSTSILLPMGPSPPAEGSTGD
notes: also called T1c-Fca-T4g; IL-17RA/RC-Fc-TNFR2
As for B2, in assay [1], the “IC50 (ng/mL) of hIL-17A, SEAP reporter assay in HEK-Blue IL-17 cells” value was 15.3 ng/mL. Besides, the “IC50 (ng/mL) of hIL-17F, SEAP reporter assay in HEK-Blue IL-17 cells” value in assay [3] came out at 1240 ng/mL. Further, the EC50 in assay [5] came out at 0.0627 µg/mL; in assay [6], 0.0853 µg/mL.
